According to patent US20100136006A1:

How the values were obtained:
[1] = molecular target: CSF1 (colony stimulating factor 1 ligand) (UniProt P09603); assay: cell-based or functional assay
[2] = molecular target: IL34 (interleukin 34 ligand) (UniProt Q6ZMJ4); assay: cell-based or functional assay
Sequence of UniProt Q6ZMJ4 (Q6ZMJ4 21-242 limits assumed): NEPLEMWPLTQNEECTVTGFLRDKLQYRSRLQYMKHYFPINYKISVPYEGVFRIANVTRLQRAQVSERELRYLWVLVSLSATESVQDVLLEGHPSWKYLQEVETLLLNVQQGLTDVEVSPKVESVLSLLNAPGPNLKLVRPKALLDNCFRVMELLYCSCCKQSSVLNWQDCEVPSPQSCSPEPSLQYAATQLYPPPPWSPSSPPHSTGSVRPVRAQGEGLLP

Sequence of UniProt P09603 (P09603 33-190 limits assumed): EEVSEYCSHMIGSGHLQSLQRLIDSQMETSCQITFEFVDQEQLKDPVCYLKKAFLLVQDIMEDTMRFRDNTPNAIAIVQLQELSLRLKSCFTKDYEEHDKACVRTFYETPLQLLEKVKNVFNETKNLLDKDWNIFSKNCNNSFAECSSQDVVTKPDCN

hCSF1R-ECD.506-Fc (Fc fusion)
IC50 for inhibition of CSF1-induced monocyte proliferation [1]: 1.5 nM | IC50 for inhibition of IL34-induced monocyte proliferation [2]: 0.27 nM
